The record followed here is CN111423507A (CAS CENTER FOR EXCELLENCE IN MOLECULAR CELL SCIENCE, dated 2020).

Experiment [1] addresses 全长1968HongKong H3N2 HA (义翘神州 Cat:VG40116-NH, N端His标签, 293T表达) (Influenza A virus …, UniProt Q91MA7 17-566). Briefly: Western blot of full-length HA expressed in 293T cells. (In general: In western blotting, separated proteins are transferred to a membrane and probed.)
In experiment [2] the target is A/HongKong/01/1968(H3N2)HA蛋白 (Influenza A virus …, UniProt Q91MA7 17-530). Briefly: ELISA, native HA coated at 1 ug/ml, antibody 5 ug/ml. (ELISA stands for enzyme-linked immunosorbent assay.)
Sequence of A/HongKong/01/1968(H3N2)HA蛋白 (Q91MA7 17-530 limits assumed): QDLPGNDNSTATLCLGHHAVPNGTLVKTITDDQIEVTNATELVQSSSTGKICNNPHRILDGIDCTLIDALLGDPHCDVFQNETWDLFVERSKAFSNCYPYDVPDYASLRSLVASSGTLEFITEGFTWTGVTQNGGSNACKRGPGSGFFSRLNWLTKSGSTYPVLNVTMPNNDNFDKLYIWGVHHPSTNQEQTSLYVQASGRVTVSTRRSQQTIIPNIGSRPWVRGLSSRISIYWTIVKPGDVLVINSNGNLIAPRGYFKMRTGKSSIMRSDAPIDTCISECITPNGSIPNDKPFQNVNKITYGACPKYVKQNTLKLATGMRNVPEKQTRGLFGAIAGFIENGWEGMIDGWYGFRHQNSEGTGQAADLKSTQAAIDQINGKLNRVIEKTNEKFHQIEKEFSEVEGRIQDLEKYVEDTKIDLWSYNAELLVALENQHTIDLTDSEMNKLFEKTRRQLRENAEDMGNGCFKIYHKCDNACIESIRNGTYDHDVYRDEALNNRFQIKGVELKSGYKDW

Sequence of 全长1968HongKong H3N2 HA (义翘神州 Cat:VG40116-NH, N端His标签, 293T表达) (Q91MA7 17-566 limits assumed): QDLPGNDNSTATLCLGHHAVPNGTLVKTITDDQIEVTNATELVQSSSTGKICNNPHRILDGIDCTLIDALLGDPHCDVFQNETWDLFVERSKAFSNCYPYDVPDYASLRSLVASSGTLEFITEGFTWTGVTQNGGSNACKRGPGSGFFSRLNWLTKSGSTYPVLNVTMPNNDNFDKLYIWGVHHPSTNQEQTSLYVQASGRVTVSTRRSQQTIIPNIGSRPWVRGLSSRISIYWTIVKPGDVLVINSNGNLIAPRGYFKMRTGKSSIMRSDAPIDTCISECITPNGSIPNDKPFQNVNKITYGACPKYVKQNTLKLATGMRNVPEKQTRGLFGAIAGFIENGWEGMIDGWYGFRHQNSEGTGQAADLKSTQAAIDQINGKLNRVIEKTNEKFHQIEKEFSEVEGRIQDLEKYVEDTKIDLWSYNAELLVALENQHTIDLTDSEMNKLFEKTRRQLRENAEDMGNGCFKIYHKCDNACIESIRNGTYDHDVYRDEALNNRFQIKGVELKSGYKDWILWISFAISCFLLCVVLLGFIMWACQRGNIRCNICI

B1: 12mAb (antibody, V domains shown)
VH: EVQLVESGGGLVQPGGSLRLSCAASGFTFSTYNMNWVRQAPGKGLEWLSYISTSSNTIYYADSVKGRFTISRDNAKNSLFLQMNSLRDEDTAVYYCARDRGCSSTNCYVVGYYFYGMDVWGQGTTVTVSS
VL: DIQMTQSPSSVSASVGDRVTITCRASQGISSYLAWYQLKPGRAPKLLIYGATRLQSGVPSRFSGSGSGTDFTLTISGLQPEDFATYHCQQADSFPLTFGQGTRLEIK
In the case of B1, the binding result in experiment [1] and in experiment [2] was “binds” each time.
